Laboratory results taken from US20210292392A1 (TSB THERAPEUTICS BEIJING, published 2021).

Columns and labels:
[1] = target: recombinant RBD of the spike protein of SARS-CoV-2 (residues Arg319-Phe541) (SARS-CoV-2, UniProt P0DTC2 319-541)
[2] = target: T1, full length spike (S) protein of SARS-CoV-2 (SARS-CoV-2, UniProt P0DTC2 14-1273); experiment: cell-based or functional assay
[3] = target: spike protein of live SARS-CoV-2 (SARS-CoV-2, UniProt P0DTC2 14-1273); experiment: cell-based or functional assay
[4] = target: full length S protein of SARS-CoV-2 (on pseudovirus) (SARS-CoV-2, UniProt P0DTC2 14-1273); experiment: cell-based or functional assay
[5] = target: T1, full length spike (S) protein of …; experiment: cell-based or functional assay; remark: listed apart in the source

B1: P2B-1G5 (antibody, human IgG1, lambda, V domains shown)
VH: QVQLVQSGSELKKPGASVKVSCKASGYTFTTYVMNWVRQAPGQGLEWMGWINTNTGNPTYAQGFTGRFVFSLDTSVSTASLQISSLKAEDTAVYYCSCEITTLGGMDVWGQGTTVTVSS
VL: SYVLTQPPSVSVAPGKTARITCGGNNIGSKSVHWYQQKPGQAPVLVIYYDSDRPSGIPERFSGSNSGNTATLTISGVEAGDEADYYCQVWDSISDHRVFGGGTKLTVLG
[1]
  Kd: 0.1 nM
  kon: 1.38e+06 M⁻¹ s⁻¹
[2]
  IC50, pseudovirus neutralization: 0.11 µg/mL

B2: P2B-2F6 (antibody, V domains shown)
VH: QVQLQESGPGLVKPSETLSLTCTVSGYSISSGYYWGWIRQPPGKGLEWIGSIYHSGSTYYNPSLKTRVTISVDTSKNQFSLKLSSVTAADTAVYYCARAVVGIVVVPAAGRRAFDIWGQGTMVTVSS
VL: QSALTQPPSASGSPGQSVTISCTGTSSDVGGYNYVSWYQQHPGKAPKLMIYEVSKRPSGVPDRFSGSKSGNTASLTVSGLQAEDEADYYCSSYAGSNNLVFGGGTKLTVLG
[3]
  Live virus IC50: 0.407 µg/mL
[4]
  Pseudovirus IC50: 0.05 µg/mL
  Pseudovirus IC80: 0.607 µg/mL

B3: P4B-1F4 (antibody, human IgG1, kappa, V domains shown)
VH: QVQLVESGGGVVQPGRSLRLSCAASGFTFSSYGMHWVRQAPGKGLEWVAVISYDGSNKYYADSVKGRFTISRDNSKNTLYLQINSLRAEDTAVYYCAKGPRYSSSWYISLYYYYGMDVWGQGTTVTVSS
VL: not shown
[5]
  IC90, Pesudovirus neutralization: 14.5 µg/mL
